The labels stand for the following.
B1: CPEB3 Ribozyme (parent)
chain: GGGGGCCACAGCAGAAGCGUUCACGUCGCGGCCCCUGUCAGAUUCUGGUGAAUCUGCGAAUUCUGCUGU

Variants of B1 are the subject of the data set. Briefly: self-cleavage, relative activity (ratio to wild type); higher = more cleavage; co-transcriptional.
Regarding GGGGGCUACAGCAGAAGCGUUCACGUCGCGGCCCCUGUCAGAUUCUGGUGAAUCUACGAAUUCUGCUGU, the self-cleavage came to 0.916.
The value for GGGGGCCCCAGCAGAAGCGUUCACGUCGCGGCCCCUGUCCGAUUCUGGUGAAUCUGCGAAUUCUGCUGU was 0.639; that for GGGGGCCCCAGCAGAAGCGUUCACGUCGCGGCCCCUGGCAGAUUCUGGUGAAUCUGCGAAUUCUGCUGU was 0.245; that for GGGGGCCCCAGCAGAAGCGUUCACGUCGCGGCCCCUGACAGAUUCUGGUGAAUCUGCGAAUUCUGCUGU was 0.897.
The value for GGGGGCUACAGCAGAAGCGUUCACGUCGCGGCCCCUGUCAGAUUCUGGUGAAUCUGCUAAUUCUGCUGU was 0.983.
With GGGGGCCCCAGCAGAAGCGUUCACGUCGCGGCUCCUGUCAGAUUCUGGUGAAUCUGCGAAUUCUGCUGU the figure was 1; with GGGGGCCCCAGCAGAAGCGUUCACGUCGCGGCCCCUGUCAGAUGCUGGUGAAUCUGCGAAUUCUGCUGU, 0.927.
For GGGGGCCCCAGCAGAAGCGUUCACGUCGCGGCCCCUGUCAGCUUCUGGUGAAUCUGCGAAUUCUGCUGU, the self-cleavage worked out at 0.992.
Consider GGGGGCCCCAGCAGAAGCGUUCACGUCGCGGCCCCUGUCAGAAUCUGGUGAAUCUGCGAAUUCUGCUGU, for which the self-cleavage stood at 0.971.
Turning to GGGGGCCCCAGCAGAAGCGUUCACGUCGCGGCCCCUGUCAGAGUCUGGUGAAUCUGCGAAUUCUGCUGU, the self-cleavage amounted to 0.938.
The value for GGGGGCCCCAGCAGAAGCGUUCACGUCGCGGCCCCUGUCAGACUCUGGUGAAUCUGCGAAUUCUGCUGU was 0.95.
In the case of GGGGGCCCCAGCAGAAGCGUUCACGUCGCGGCCCCUGUCAGAUUCUGAUGAAUCUGCGAAUUCUGCUGU, the self-cleavage is 1.
With GGGGGCCCCAGCAGAAGCUUUCACGUCGCGGCCCCUGUCAGAUUCUGGUGAAUCUGCGAAUUCUGCUGU the figure was 0.462; with GGGGGCCCCAGCAGAAGCCUUCACGUCGCGGCCCCUGUCAGAUUCUGGUGAAUCUGCGAAUUCUGCUGU, 0.107.
As to GGGGGCUACAGCAGAAGCGUUCACGUCGCGGCCCCUGUCAGAUUCUGGUGAACCUGCGAAUUCUGCUGU, the self-cleavage is 0.784.
The value for GGGGGCUACAGCAGAAGCGUUCACGUCGCGGCCCCUGUCAGAUUCUGGAGAAUCUGCGAAUUCUGCUGU was 0.957; that for GGGGGCCCCAGCAGAAGCGUUCACGCCGCGGCCCCUGUCAGAUUCUGGUGAAUCUGCGAAUUCUGCUGU was 0.992.
With GGGGGCCCCAGCAGAAGCGUUCACGACGCGGCCCCUGUCAGAUUCUGGUGAAUCUGCGAAUUCUGCUGU the figure was 0.82; with GGGGGCCCCAGCAGAAGCGUUCACGGCGCGGCCCCUGUCAGAUUCUGGUGAAUCUGCGAAUUCUGCUGU, 0.835.
With GGGGGCCCCAGCAGGAGCGUUCACGUCGCGGCCCCUGUCAGAUUCUGGUGAAUCUGCGAAUUCUGCUGU the figure was 0.995.
For GGGGGCCCCAGCAGAAGCGUUCACGUCGCGGCCCCUGUCAGAUUCUGGUGAAUCUGCGAAUUGUGCUGU, the self-cleavage turned out to be 0.734.
The value for GGGGGCCCCAGCAGAAGCGUUCACGUCGCGGCCCCUGUCAGAUUCUGGUGAAUCUUCGAAUUCUGCUGU was 0.908.
Take GGGGGCCCCAGCAGAAGCGUGCACGUCGCGGCCCCUGUCAGAUUCUGGUGAAUCUGCGAAUUCUGCUGU: the self-cleavage was determined as 0.501.
As to GGGGGCCCCAGCAGAAGCGUACACGUCGCGGCCCCUGUCAGAUUCUGGUGAAUCUGCGAAUUCUGCUGU, the self-cleavage turned out to be 0.972.
On to GGGGGCCCCAGCAGAAGCGUUCACGUCGCGGCCCCUGUCAGAUUCUGGUGAAUAUGCGAAUUCUGCUGU, for which the self-cleavage was determined as 0.915.
Consider GGGGGCUACAGCAGAAGCGUUCACGUCGCGGCCCCUGUCAGAUUCUUGUGAAUCUGCGAAUUCUGCUGU, for which the self-cleavage was found to be 1.02.
With GGGGGCUACAGCAGAAGCGUUCACGUCGCGGCCCCUGUCAGAUUCUGGUGAAUCUGCGAAGUCUGCUGU the figure was 0.714; with GGGGGCUACAGCAGAAGCGUUCACGUCGCGGCCCCUGUCAGAUUCUGGUAAAUCUGCGAAUUCUGCUGU, 0.996; with GGGGGCCCCAGCAGAAGAGUUCACGUCGCGGCCCCUGUCAGAUUCUGGUGAAUCUGCGAAUUCUGCUGU, 0.152.
For GGGGGCCCCAGCAGAAGCGUUCACGUCGCGGCCCCUGUCAGAUUCUGGUGAAUCUGCGAAAUCUGCUGU, the self-cleavage was determined as 0.913.
Take GGGGGCCCCAGCAGAAGCGUUCACGUCGCGGCCCCUGUCACAUUCUGGUGAAUCUGCGAAUUCUGCUGU: the self-cleavage came out at 0.757.
Take GGGGGCCCCAGCAGAAGCGUUCACGUCGGGGCCCCUGUCAGAUUCUGGUGAAUCUGCGAAUUCUGCUGU: the self-cleavage amounted to 0.0981.
In the case of GGGGGCCCCAGCAGAAGCGUUCACGUCGUGGCCCCUGUCAGAUUCUGGUGAAUCUGCGAAUUCUGCUGU, the self-cleavage turned out to be 0.81.
For GGGGGCCCCAGCAGAAGCGUUCACGUUGCGGCCCCUGUCAGAUUCUGGUGAAUCUGCGAAUUCUGCUGU, the self-cleavage is 0.342.
Regarding GGGGGCCCCAGCAGAAGCGUUCACGUCGCGGCCCCUCUCAGAUUCUGGUGAAUCUGCGAAUUCUGCUGU, the self-cleavage is 0.239.
Turning to GGGGGCUACAGCAGAAGCGUUCACGUCGCGGCCCCUGUCAGAUUCGGGUGAAUCUGCGAAUUCUGCUGU, the self-cleavage came out at 0.934.
On to GGGGGCUACAGCAGAAGCGUUCACGUCGCGGCCCCUGUCAGAUUCAGGUGAAUCUGCGAAUUCUGCUGU, for which the self-cleavage amounted to 0.985.
With GGGGGCUACAGCAGAAGCGGUCACGUCGCGGCCCCUGUCAGAUUCUGGUGAAUCUGCGAAUUCUGCUGU the figure was 0.17; with GGGGGCCCCAGCAGAAGCGUUCACGUCGCGGCCCCUGUCAGAUUCUGGUGAAUCUGCGAAUUCUGAUGU, 0.818.

Source of the values: the RNAGym collection of RNA variant scans (doi:10.7554/elife.80360).
